Series [1] deals with the molecule itself. Put plainly: negative-stain electron microscopy.
The series “SEC” concerns the molecule itself. The experiment in a line: SEC. (In general: In gel filtration, larger molecules generally elute earlier.)

B1: ClpX^ΔN unfoldase from Thermus thermophilus (lacks the first 52 residues) (domain or fragment)
chain: not shown
As usually defined, the stoichiometry N is a count of units in the complex or per binding partner. On to B1, for which, in series [1], the “stoichiometry N” value came to 6.

B2: ClpP protease from Thermus thermophilus (tetradecameric ClpP14, 300 kDa) (enzyme)
chain: not shown
On to B2, for which the “stoichiometry N” value in the series “SEC” turned out to be 14.

Source of the values: publication PMC12683673 (RSC Chemical Biology, 2025).
